# Experimental data from patent US7407939B2, “Protein kinase inhibitors comprising ATP mimetics conjugated to peptides or peptidomimetics” (CureGenics Ltd., priority 2001, dated 2008).
# pIC50: −log10 of the molar value. Where two headings read alike, the source gives them in different places. *1 amine or outer side, *2 acyl side, *3 side chain or, on linkers, in order; H or OH if unused. Where a SMILES comes first, the peptide text is derived from it. Where no end group is shown, it is not given here. Side-chain parts run from the residue outwards. [ ]: non-standard residue; d: D form. The star is where a group is joined. X1 = 5‑aminoethylsulfonamide isoquinoline, O=S(=O)(NCCN*)c1cccc2cnccc12; Isoquinoline5sulfonyl = O=S(=O)(c1cccc2cnccc12)*; Ethylenediamine = C(CN[*:2])N[*:1]; hLeu = CC(C)CC[C@H](N)C(=O)O; Nle = CCCC[C@H](N)C(=O)O; Orn = NCCC[C@H](N)C(=O)O; Dab = NCC[C@H](N)C(=O)O; Nva = CCC[C@H](N)C(=O)O; Abu = CC[C@H](N)C(=O)O; Dap = NC[C@H](N)C(=O)O; GlyNH2 = aminoglycine; βAla = NCCC(=O)O
# Experiments:
# PKB = molecular target: T1, PKB (Homo sapiens, UniProt P31749); experiment: PKB in vitro kinase activity assay (soluble His-HA-PKB / SPA bead screening); type: biochemical; parameters: % Inhibition PKB I / % Inhibition PKB II: concentration or dose not given beside the values; conditions: for PKB-kinase (spa) Assay 1, % inhibition of kinase activity / PKB-kinase (spa) Assay 2, % inhibition of kinase activity / inhibition at 1 µM: 1 μM compound concentration; for % Inhibition PKB I / % Inhibition PKB II: plate screening
# T1 construct: His; HA; made in house
# PKA = molecular target: T2, PKA (Bos taurus, UniProt P00517); experiment: In vitro PKA kinase activity assay (kemptide / SPA beads); type: biochemical; parameters: % Inhibition PKA: concentration or dose not given beside the values; conditions: for PKA-kinase Assay 1, % inhibition of kinase activity / PKA-kinase Assay 2, % inhibition of kinase activity / inhibition at 1 µM: 1 μM compound concentration; for % Inhibition PKA: plate screening;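 for all read-outs here: Cell-free assay of purified PKA catalytic subunit phosphorylating the 7-mer kemptide substrate, run in MOPS buffer with magnesium acetate and BSA, with blank wells lacking enzyme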
# T2 construct: purchased Promega
# [1] = Assay 1, read-out: PKB-kinase (spa) Assay 1, % inhibition of kinase activity
# [2] = Assay 2, read-out: PKB-kinase (spa) Assay 2, % inhibition of kinase activity
# [3] = Table 1, most preferred compounds, read-out: IC50 PKB
# [4] = Assay 1, read-out: PKA-kinase Assay 1, % inhibition of kinase activity
# [5] = Assay 2, read-out: PKA-kinase Assay 2, % inhibition of kinase activity
# [6] = Table 1, most preferred compounds, read-out: IC50 PKA
# [7] = Table 3, linear 7-mer peptides, read-out: Activity PKB
# [8] = Table 3, linear 7-mer peptides, read-out: Activity PKA
# [9] = Table 6, most active compounds from plate TY-60020, read-out: IC50 PKB
# [10] = Table 6, most active compounds from plate TY-60020, read-out: IC50 PKA
# T1 sequence (P31749 whole entry, species assumed): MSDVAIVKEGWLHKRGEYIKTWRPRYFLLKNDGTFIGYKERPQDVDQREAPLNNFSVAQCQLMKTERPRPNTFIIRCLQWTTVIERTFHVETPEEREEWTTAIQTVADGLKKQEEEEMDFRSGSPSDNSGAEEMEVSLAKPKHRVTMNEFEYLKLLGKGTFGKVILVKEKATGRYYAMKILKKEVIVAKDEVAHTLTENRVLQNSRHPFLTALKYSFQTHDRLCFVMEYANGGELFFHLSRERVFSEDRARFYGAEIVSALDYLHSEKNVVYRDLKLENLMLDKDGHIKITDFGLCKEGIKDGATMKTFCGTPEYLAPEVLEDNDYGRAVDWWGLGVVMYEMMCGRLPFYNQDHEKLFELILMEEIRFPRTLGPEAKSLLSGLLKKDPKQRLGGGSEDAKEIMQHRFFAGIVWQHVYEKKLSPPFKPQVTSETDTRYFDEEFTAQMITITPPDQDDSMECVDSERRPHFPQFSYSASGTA
"PKB-kinase (spa) Assay 1, % inhibition of kinase activity (PKB; Assay 1) [%]","PKB-kinase (spa) Assay 2, % inhibition of kinase activity (PKB; Assay 2) [%]","PKA-kinase Assay 1, % inhibition of kinase activity (PKA; Assay 1) [%]","PKA-kinase Assay 2, % inhibition of kinase activity (PKA; Assay 2) [%]",Compound,other results
59,70,87,89,60020-60: Arg-Pro-Arg-Nle-Glu(Gly-5-aminoethylsulfonamide isoquinoline)-Orn-Hol (RPR[Nle]E([Gly-X1])[Orn][hLeu]),–
–,–,–,–,60002-88 (RPRT[Abu][Dap]F) [Compound 60002-88],% Inhibition PKB I (PKB; peptide moiety alone): 40%; % Inhibition PKA (PKA; peptide moiety alone): −3%
–,–,–,–,CCC[C@H](NC(=O)[C@H](CCCNC(=N)N)NC(=O)[C@@H]1CCCN1C(=O)[C@@H](N)CCCNC(=N)N)C(=O)NCC(=O)N[C@@H](C)C(=O)N[C@@H](CCC(C)C)C(N)=O [60006-18A] (H-RPR[Nva]GA[hLeu]-NH2; N-terminus and C-terminus assumed),"IC50 (PKB; Table 10, accurate IC50 curve, peptide moiety alone, read-out: IC50 μM PKB): 9.45 µM; % Inhibition PKB I (PKB; peptide moiety alone): 47%; % Inhibition PKB II (PKB; peptide moiety alone): 52%; IC50 (PKA; Table 10, accurate IC50 curve, peptide moiety alone, read-out: IC50 μM PKA): > 100 µM; % Inhibition PKA (PKA; peptide moiety alone): 11%"
63,69,98,98,60020-33: Arg-Pro-Arg-Dap-Glu(Gly-5-aminoethylsulfonamide isoquinoline)-Dab-Phe (RPR[Dap]E([Gly-X1])[Dab]F),–
–,–,–,–,"CCCC[C@H](NC(=O)[C@H](CCCNC(=N)N)NC(=O)[C@@H]1CCCN1C(=O)[C@@H](N)CCCNC(=N)N)C(=O)N[C@@H](CCC(=O)NCC(=O)NCCNS(=O)(=O)c1cccc2cnccc12)C(=O)N[C@@H](CCN)C(=O)N[C@@H](CCC(C)C)C(N)=O [60020-58, Arg-Pro-Arg-Nle-Glu-(Gly-5-aminoethylsulfonamide)-Dab-Hol] (H-RPR[Nle]E([Gly-Ethylenediamine-Isoquinoline5sulfonyl])[Dab][hLeu]-NH2)",inhibition at 1 µM (PKB; [1]): 89%; inhibition at 1 µM (PKB; [2]): 93%; pIC50 (PKB; [3]): 6.92; inhibition at 1 µM (PKA; [4]): 98%; inhibition at 1 µM (PKA; [5]): 99%; pIC50 (PKA; [6]): 7.30
67,65,98,99,60020-1: Arg-Pro-Arg-Dap-Glu(5-aminoethylsulfonamide isoquinoline)-Dab-Phe (RPR[Dap]E(X1)[Dab]F),–
–,–,–,–,"CC(C)CC[C@H](NC(=O)[C@H](C)NC(=O)[C@H](CO)NC(=O)[C@@H](NC(=O)[C@H](CCCNC(=N)N)NC(=O)[C@@H]1CCCN1C(=O)[C@@H](N)CCCNC(=N)N)[C@@H](C)O)C(N)=O [TY 60002-50, Arg-Pro-Arg-Thr-Ser-Ala-Hol] (H-RPRTSA[hLeu]-NH2; N-terminus and C-terminus assumed)",pIC50 (PKB; [7]): 5.30; pIC50 (PKA; [8]): < 4.40
54,67,95,95,60020-44: Arg-Pro-Arg-Orn-Glu(Gly-5-aminoethylsulfonamide isoquinoline)-Orn-Hol (RPR[Orn]E([Gly-X1])[Orn][hLeu]),–
–,–,–,–,CCCC[C@H](NC(=O)[C@H](CCCNC(=N)N)NC(=O)[C@@H]1CCCN1C(=O)[C@@H](N)CCCNC(=N)N)C(=O)N[C@@H](CCC(=O)NCC(=O)NCCNS(=O)(=O)c1cccc2cnccc12)C(=O)N[C@@H](CCCN)C(=O)N[C@@H](Cc1ccccc1)C(N)=O [60020-59] (H-RPR[Nle]E([Gly-Ethylenediamine-Isoquinoline5sulfonyl])[Orn]F-NH2; N-terminus assumed),inhibition at 1 µM (PKB; [1]): 62%; inhibition at 1 µM (PKB; [2]): 75%; pIC50 (PKB; [9]): 6.52; inhibition at 1 µM (PKA; [4]): 92%; inhibition at 1 µM (PKA; [5]): 93%; pIC50 (PKA; [10]): 6.70
–,–,–,–,"CCCC[C@H](NC(=O)[C@H](CCCNC(=N)N)NC(=O)[C@@H]1CCCN1C(=O)[C@@H](N)CCCNC(=N)N)C(=O)N[C@@H](CCC(=O)NCC(=O)NCCNS(=O)(=O)c1cccc2cnccc12)C(=O)N[C@@H](CCN)C(=O)N[C@@H](Cc1ccccc1)C(N)=O [60020-57, Arg-Pro-Arg-Nle-Glu-(Gly-5-aminoethylsulfonamide)-Dab-Phe] (H-RPR[Nle]E([Gly-Ethylenediamine-Isoquinoline5sulfonyl])[Dab]F-NH2)",inhibition at 1 µM (PKB; [1]): 92%; inhibition at 1 µM (PKB; [2]): 93%; pIC50 (PKB; [3]): 7.15; inhibition at 1 µM (PKA; [4]): 95%; inhibition at 1 µM (PKA; [5]): 96%; pIC50 (PKA; [6]): 6.68
71,57,96,97,60020-9: Arg-Pro-Arg-Orn-Glu(5-aminoethylsulfonamide isoquinoline)-Dab-Phe (RPR[Orn]E(X1)[Dab]F),–
47,37,94,95,60020-51: Arg-Pro-Arg-Abu-Glu(Gly-5-aminoethylsulfonamide isoquinoline)-Orn-Phe (RPR[Abu]E([Gly-X1])[Orn]F),–
48,62,96,96,60020-43: Arg-Pro-Arg-Orn-Glu(Gly-5-aminoethylsulfonamide isoquinoline)-Orn-Phe (RPR[Orn]E([Gly-X1])[Orn]F),–
60,54,97,97,60020-50: Arg-Pro-Arg-Abu-Glu(Gly-5-aminoethylsulfonamide isoquinoline)-Dab-Hol (RPR[Abu]E([Gly-X1])[Dab][hLeu]),–
–,–,–,–,60005-32 (RPRT[GlyNH2]A[hLeu]) [Compound 60005-32],% Inhibition PKB I (PKB; peptide moiety alone): 43%; % Inhibition PKB II (PKB; peptide moiety alone): 44%; % Inhibition PKA (PKA; peptide moiety alone): 4%
–,–,–,–,"CC(C)CC[C@H](NC(=O)[C@H](CN)NC(=O)[C@H](CO)NC(=O)[C@@H](NC(=O)[C@H](CCCNC(=N)N)NC(=O)[C@@H]1CCCN1C(=O)[C@@H](N)CCCNC(=N)N)[C@@H](C)O)C(N)=O [TY 60002-96, Arg-Pro-Arg-Thr-Ser-Dap-Hol] (H-RPRTS[Dap][hLeu]-NH2; N-terminus and C-terminus assumed)",pIC50 (PKB; [7]): 5.30; pIC50 (PKA; [8]): < 4.40
–,–,–,–,CC(C)CC[C@H](NC(=O)[C@H](CCCN)NC(=O)[C@H](CCC(=O)NCCC(=O)NCCNS(=O)(=O)c1cccc2cnccc12)NC(=O)[C@H](CN)NC(=O)[C@H](CCCNC(=N)N)NC(=O)[C@@H]1CCCN1C(=O)[C@@H](N)CCCNC(=N)N)C(N)=O [60020-68] (H-RPR[Dap]E([βAla-Ethylenediamine-Isoquinoline5sulfonyl])[Orn][hLeu]-NH2; N-terminus assumed),inhibition at 1 µM (PKB; [1]): 61%; inhibition at 1 µM (PKB; [2]): 74%; pIC50 (PKB; [9]): 6.30; pIC50 (PKA; [10]): 6.60
47,48,94,95,60020-2: Arg-Pro-Arg-Dap-Glu(5-aminoethylsulfonamide isoquinoline)-Dab-Hol (RPR[Dap]E(X1)[Dab][hLeu]),–
66,66,95,95,60020-49: Arg-Pro-Arg-Abu-Glu(Gly-5-aminoethylsulfonamide isoquinoline)-Dab-Phe (RPR[Abu]E([Gly-X1])[Dab]F),–
–,–,–,–,CCCC[C@H](NC(=O)[C@H](CCCNC(=N)N)NC(=O)[C@@H]1CCCN1C(=O)[C@@H](N)CCCNC(=N)N)C(=O)N[C@@H](CCC(=O)NCCNS(=O)(=O)c1cccc2cnccc12)C(=O)N[C@@H](CO)C(=O)N[C@@H](Cc1ccccc1)C(N)=O [compound 6128],"pIC50 (PKB; chimeric PTR compounds (peptide conjugated to isoquinoline small molecule), read-out: PKB IC50): 5.05; pIC50 (PKA; chimeric PTR compounds (peptide conjugated to isoquinoline small molecule), read-out: PKA IC50): 7.00"
56,53,92,92,60020-52: Arg-Pro-Arg-Abu-Glu(Gly-5-aminoethylsulfonamide isoquinoline)-Orn-Hol (RPR[Abu]E([Gly-X1])[Orn][hLeu]),–
–,–,–,–,"CC(C)CC[C@H](NC(=O)[C@H](CCN)NC(=O)[C@H](CCC(=O)NCC(=O)NCCNS(=O)(=O)c1cccc2cnccc12)NC(=O)[C@H](CCCN)NC(=O)[C@H](CCCNC(=N)N)NC(=O)[C@@H]1CCCN1C(=O)[C@@H](N)CCCNC(=N)N)C(N)=O [60020-42, Arg-Pro-Arg-Orn-Glu-(Gly-5-aminoethylsulfonamide)-Dab-Hol] (H-RPR[Orn]E([Gly-Ethylenediamine-Isoquinoline5sulfonyl])[Dab][hLeu]-NH2)",inhibition at 1 µM (PKB; [1]): 80%; inhibition at 1 µM (PKB; [2]): 86%; pIC50 (PKB; [3]): 6.96; inhibition at 1 µM (PKA; [4]): 99%; inhibition at 1 µM (PKA; [5]): 99%; pIC50 (PKA; [6]): 7.30
−3,−8,–,–,60020-23: Arg-Pro-Arg-Abu-Glu(5-aminoethylsulfonamide isoquinoline)-Nva-Phe (RPR[Abu]E(X1)[Nva]F),–
